The values that follow are results of earlier work, collected in paper PMC3057930.

This data set concerns the target CaMKIIp (UniProt Q9UQM7).

CaMKIIp, sequence (Q9UQM7 293-312): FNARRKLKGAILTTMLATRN

Usually Kd stands for a measure of binding affinity in units of concentration. Take “(Ca2+)2-CaM76-148 76-148 (from UniProt P0DP29)”: the Kd is 950 nM.
